Results published in paper PMC9931023 (Journal of Food and Drug Analysis, 2021).

Target: p27 (Kip1), endogenous in breast tissue (human (endogenous in breast tissue …, UniProt P46527 1-198))
Assay: FRET or BRET

Chain of p27 (Kip1), endogenous in breast tissue (human (P46527 whole entry): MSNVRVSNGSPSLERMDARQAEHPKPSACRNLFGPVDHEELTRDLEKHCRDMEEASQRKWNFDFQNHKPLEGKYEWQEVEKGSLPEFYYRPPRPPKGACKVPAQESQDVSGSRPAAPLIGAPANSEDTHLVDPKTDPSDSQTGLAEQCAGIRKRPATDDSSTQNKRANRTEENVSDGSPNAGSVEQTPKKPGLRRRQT

FRET activity (fold): 25.2 fold
B1: salt-induced kinase-3 (SIK3), endogenous in breast tissue (enzyme, UniProt Q9Y2K2-5 1-1321, looked up)
chain: MAAAAASGAGGAAGAGTGGAGPAGRLLPPPAPGSPAAPAAVSPAAGQPRPPAPASRGPMPARIGYYEIDRTIGKGNFAVVKRATHLVTKAKVAIKIIDKTQLDEENLKKIFREVQIMKMLCHPHIIRLYQVMETERMIYLVTEYASGGEIFDHLVAHGRMAEKEARRKFKQIVTAVYFCHCRNIVHRDLKAENLLLDANLNIKIADFGFSNLFTPGQLLKTWCGSPPYAAPELFEGKEYDGPKVDIWSLGVVLYVLVCGALPFDGSTLQNLRARVLSGKFRIPFFMSTECEHLIRHMLVLDPNKRLSMEQICKHKWMKLGDADPNFDRLIAECQQLKEERQVDPLNEDVLLAMEDMGLDKEQTLQSLRSDAYDHYSAIYSLLCDRHKRHKTLRLGALPSMPRALAFQAPVNIQAEQAGTAMNISVPQVQLINPENQIVEPDGTLNLDSDEGEEPSPEALVRYLSMRRHTVGVADPRTEVMEDLQKLLPGFPGVNPQAPFLQVAPNVNFMHNLLPMQNLQPTGQLEYKEQSLLQPPTLQLLNGMGPLGRRASDGGANIQLHAQQLLKRPRGPSPLVTMTPAVPAVTPVDEESSDGEPDQEAVQSSTYKDSNTLHLPTERFSPVRRFSDGAASIQAFKAHLEKMGNNSSIKQLQQECEQLQKMYGGQIDERTLEKTQQQHMLYQQEQHHQILQQQIQDSICPPQPSPPLQAACENQPALLTHQLQRLRIQPSSPPPNHPNNHLFRQPSNSPPPMSSAMIQPHGAASSSQFQGLPSRSAIFQQQPENCSSPPNVALTCLGMQQPAQSQQVTIQVQEPVDMLSNMPGTAAGSSGRGISISPSAGQMQMQHRTNLMATLSYGHRPLSKQLSADSAEAHSLNVNRFSPANYDQAHLHPHLFSDQSRGSPSSYSPSTGVGFSPTQALKVPPLDQFPTFPPSAHQQPPHYTTSALQQALLSPTPPDYTRHQQVPHILQGLLSPRHSLTGHSDIRLPPTEFAQLIKRQQQQRQQQQQQQQQQEYQELFRHMNQGDAGSLAPSLGGQSMTERQALSYQNADSYHHHTSPQHLLQIRAQECVSQASSPTPPHGYAHQPALMHSESMEEDCSCEGAKDGFQDSKSSSTLTKGCHDSPLLLSTGGPGDPESLLGTVSHAQELGIHPYGHQPTAAFSKNKVPSREPVIGNCMDRSSPGQAVELPDHNGLGYPARPSVHEHHRPRALQRHHTIQNSDDAYVQLDNLPGMSLVAGKALSSARMSDAVLSQSSLMGSQQFQDGENEECGASLGGHEHPDLSDGSQHLNSSCYPSTCITDILLSYKHPEVSFSMEQAGV
